2 substances from patent US20250326814A1, “MODIFIED OXYNTOMODULIN AND METHODS OF USE THEREOF” (OPKO BIOLOGICS LTD., priority 2024, published 2025) can be followed below.

Experiment [1] addresses glucagon-like peptide-1 receptor (GLP-1R). Put plainly: cell-based or functional assay.
The next experiment addresses glucagon receptor (GCGR). The experiment is described as follows: cell-based or functional assay.

The substance “Tirzepatide (Mounjaro, Zepbound) (peptide)” came in with an EC50 (nM), GLP-1 activity in experiment [1] of 0.9 nM.
Turning to “OPK-88003 KPI (SEQ ID NO: 3 where Xaa38=Cys and Xaa39=Cys) (peptide)”, in experiment [1], the % EC50 compare to KPI (GLP1), with HSA added (KPI + HSA) came out at 107%; the EC50 (nM) GLP-1R, GLP-1 activity in vitro stood at 0.0168 nM; the EC50 (nM), GLP-1 activity came to 0.105 nM; the EC50 [nM] GLP1, CBA potency assay was found to be 0.127 nM. For the same substance, in experiment [1], the EC50 [nM] GLP1, CBA potency assay, with HSA added (KPI + HSA) turned out to be 0.187 nM and the EC50 [nM] GLP1, CBA potency assay, without HSA came out at 0.201 nM. For the same substance, in the experiment with glucagon receptor (GCGR), the % EC50 compare to KPI (GCGR), with HSA added (KPI + HSA) came to 129%; the EC50 (nM) GCGR, glucagon activity in vitro is 0.0731 nM; the EC50 [nM] GCGR, CBA potency assay came to 0.6 nM; the EC50 [nM] GCGR, CBA potency assay, with HSA added (KPI + HSA) is 1.06 nM. The EC50 [nM] GCGR, CBA potency assay, without HSA with glucagon receptor (GCGR) was 1.37 nM.
